Data from PMC8748714 (2022).
No end group written: not given here.

T1: GLP-1R V194A (Homo sapiens)
T1 chain: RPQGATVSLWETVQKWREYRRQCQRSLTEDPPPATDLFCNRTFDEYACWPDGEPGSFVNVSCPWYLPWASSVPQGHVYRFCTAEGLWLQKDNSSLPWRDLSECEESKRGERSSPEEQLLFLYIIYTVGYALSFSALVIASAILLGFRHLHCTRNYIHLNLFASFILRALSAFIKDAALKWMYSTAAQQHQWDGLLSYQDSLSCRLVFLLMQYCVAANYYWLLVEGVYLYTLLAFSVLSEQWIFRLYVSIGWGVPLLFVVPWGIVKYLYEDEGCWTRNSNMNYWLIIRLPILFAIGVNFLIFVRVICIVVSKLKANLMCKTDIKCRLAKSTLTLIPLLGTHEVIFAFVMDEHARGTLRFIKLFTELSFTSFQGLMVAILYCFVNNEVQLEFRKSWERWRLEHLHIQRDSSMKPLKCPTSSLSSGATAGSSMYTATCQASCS

T2: GLP-1R L201A (Homo sapiens)
T2 chain: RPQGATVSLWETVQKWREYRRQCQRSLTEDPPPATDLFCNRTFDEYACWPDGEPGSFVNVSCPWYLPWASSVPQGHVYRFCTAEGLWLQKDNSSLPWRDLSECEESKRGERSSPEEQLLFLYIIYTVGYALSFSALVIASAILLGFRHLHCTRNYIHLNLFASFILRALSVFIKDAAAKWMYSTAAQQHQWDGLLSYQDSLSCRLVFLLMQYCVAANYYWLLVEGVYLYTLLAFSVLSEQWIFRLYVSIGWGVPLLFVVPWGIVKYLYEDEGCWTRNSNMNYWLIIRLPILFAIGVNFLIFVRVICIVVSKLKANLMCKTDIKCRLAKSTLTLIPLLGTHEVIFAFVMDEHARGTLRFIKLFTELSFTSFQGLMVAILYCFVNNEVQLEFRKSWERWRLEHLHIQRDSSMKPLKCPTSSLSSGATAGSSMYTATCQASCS

T3: GLP-1R Q211A (Homo sapiens)
T3 chain: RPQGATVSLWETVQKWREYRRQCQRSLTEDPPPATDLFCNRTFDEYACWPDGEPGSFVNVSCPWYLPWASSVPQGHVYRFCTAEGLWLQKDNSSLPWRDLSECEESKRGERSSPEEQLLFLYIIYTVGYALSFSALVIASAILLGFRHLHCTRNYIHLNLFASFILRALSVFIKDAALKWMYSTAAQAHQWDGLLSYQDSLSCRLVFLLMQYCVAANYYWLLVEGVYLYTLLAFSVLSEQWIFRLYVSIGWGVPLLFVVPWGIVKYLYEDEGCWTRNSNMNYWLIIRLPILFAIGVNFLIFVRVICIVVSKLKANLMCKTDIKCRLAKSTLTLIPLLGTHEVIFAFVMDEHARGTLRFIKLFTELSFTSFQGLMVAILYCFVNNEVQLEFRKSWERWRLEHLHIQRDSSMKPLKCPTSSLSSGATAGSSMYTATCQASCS

T4: GLP-1R P137A (Homo sapiens)
T4 chain: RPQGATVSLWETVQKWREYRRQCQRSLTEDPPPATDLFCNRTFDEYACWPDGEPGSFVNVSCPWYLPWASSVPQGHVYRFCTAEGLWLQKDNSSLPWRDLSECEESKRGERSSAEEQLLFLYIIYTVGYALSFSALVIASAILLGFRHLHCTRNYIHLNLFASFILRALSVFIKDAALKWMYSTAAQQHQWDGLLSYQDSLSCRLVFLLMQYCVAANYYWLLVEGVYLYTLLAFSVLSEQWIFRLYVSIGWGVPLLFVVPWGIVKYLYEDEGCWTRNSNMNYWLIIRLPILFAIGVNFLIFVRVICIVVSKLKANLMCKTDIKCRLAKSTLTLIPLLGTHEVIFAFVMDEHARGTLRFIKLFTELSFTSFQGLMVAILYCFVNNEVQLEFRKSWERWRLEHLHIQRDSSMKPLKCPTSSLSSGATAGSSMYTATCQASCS

T5: GLP-1R M204A (Homo sapiens)
T5 chain: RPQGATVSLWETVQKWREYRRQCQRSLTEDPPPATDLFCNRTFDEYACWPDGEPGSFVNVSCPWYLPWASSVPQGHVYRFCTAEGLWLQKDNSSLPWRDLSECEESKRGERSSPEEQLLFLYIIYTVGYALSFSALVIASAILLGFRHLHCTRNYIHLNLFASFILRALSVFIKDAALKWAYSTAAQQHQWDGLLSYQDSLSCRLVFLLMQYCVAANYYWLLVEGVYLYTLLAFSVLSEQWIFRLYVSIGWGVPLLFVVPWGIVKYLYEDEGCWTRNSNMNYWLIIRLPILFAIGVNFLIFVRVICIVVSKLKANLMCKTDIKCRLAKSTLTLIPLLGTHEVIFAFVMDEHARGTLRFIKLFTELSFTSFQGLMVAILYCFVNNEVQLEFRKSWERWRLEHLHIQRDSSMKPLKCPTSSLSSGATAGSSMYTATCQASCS

T6: GLP-1R L144A (Homo sapiens)
T6 chain: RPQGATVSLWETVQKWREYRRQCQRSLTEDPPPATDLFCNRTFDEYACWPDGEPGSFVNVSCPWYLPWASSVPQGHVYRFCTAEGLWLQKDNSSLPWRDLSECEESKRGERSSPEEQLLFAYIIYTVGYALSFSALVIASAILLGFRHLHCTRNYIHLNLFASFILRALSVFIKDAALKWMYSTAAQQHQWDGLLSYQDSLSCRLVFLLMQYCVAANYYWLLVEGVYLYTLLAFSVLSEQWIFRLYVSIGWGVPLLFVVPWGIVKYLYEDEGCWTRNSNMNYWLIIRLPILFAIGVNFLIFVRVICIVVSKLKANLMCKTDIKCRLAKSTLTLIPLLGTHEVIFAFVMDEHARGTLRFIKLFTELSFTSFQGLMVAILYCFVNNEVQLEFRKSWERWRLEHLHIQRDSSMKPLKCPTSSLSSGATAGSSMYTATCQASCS


Key:
[1] = target: T1, GLP-1R V194A
[2] = target: T2, GLP-1R L201A
[3] = target: T3, GLP-1R Q211A
[4] = target: T4, GLP-1R P137A
[5] = target: T5, GLP-1R M204A
[6] = target: T6, GLP-1R L144A

Row | Binder | IC50 [1] | IC50 [2] | IC50 [3] | IC50 [4] | IC50 [5] | IC50 [6]
1 | HAEGTFTSDVSSYLEGQAAKEFIAWLVKGR (not fully specified (C-terminus)) [glucagon-like peptide-1] | 6.17 nM | 38.9 nM | 2.34 nM | 40.7 nM | 79.4 nM | 11 nM
2 | HSQGTFTSDYSKYLDSRRAQDFVQWLMNTKRNRNNIA [oxyntomodulin] | 77.6 nM | 107 nM | 19.5 nM | 74.1 nM | 741 nM | 51.3 nM
